Measurements taken from the nanobody polyreactivity screen of Harvey et al. (2022).

Assay: yeast display, Sf9 membrane polyspecificity reagent, FACS + sequencing; frameworks hold sequencing errors
Summary of the method: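 Polyreactivity labels are assigned by the sorting gate from which each nanobody was recovered. The gates were low and high (top ~1%), set on anti-HA fluorescence for expression and streptavidin fluorescence for reagent binding. Before sorting, galactose-induced (36–48 hours) yeast display cells were stained for 1 hour at 4 °C with 10% biotinylated, detergent-solubilized Sf9 membrane reagent.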

Sequence	polyreactivity (PSR sort gate)
QVQLVESGGGLVQAGGSLRLSCAASGITFYHYAMGWYRQAPGKERELVATISSRGGTTYYADSVKGRFTISRDNAKNTVYLQMNSLKPEDTAVYYCADRTWIIYPVSKYDSWGQGTQVTVSS	high polyreactivity
QVQLVESGGGLVQAGGSLRLSCAASGITFYINAMGWSRQAPRKERALLAGISSGGSTNYADSVKGRFTISRDNAKNTVYLQMNSLKPEDTAVYYCWVSRTYHLDYWGQGTQVTVSS	low polyreactivity
QVQLVESGGGLVQAGGSLRLSCAASGITFYINGMGWYRQAPGKEREFVAAIYDGVNTYYADSVKGRFTISRDNAKNTVYLQMNSLKPEDTAVYYCAADYPPARWEMEYWGQGTQVTVSS	low polyreactivity
QVQLVESGGGLVQAGGSLRLSCAASGITFYKYAMGWYRQAPGKERELVAAITSTGGRTYYADSVKGRFTISGDNAKNSVYLQMNSLKPEDTAVYYCAKVFNQFIEHDYWGQGTQVTVSS	low polyreactivity
QVQLVESGGGLVQAGGSLRLSCAASGITFYKYVMGWYRKAPGKERELVAAISSVGSTYYADSVKGRFTISRDNAKNTVYLQMNSLKPEDTAVYYCAAKYWKWYHYGFGYWGQGTQVTVSS	high polyreactivity
QVQLVESGGGLVQAGGSLRLSCAASGITFYKYVMGWYRQAPGKERELVAAISSVGSTYYADSVKGRFTISRDNAKNTVYLQMNSLKPEDTAVYYCAAKYWKWYHYGFGYWGQGTQVTVSS	high polyreactivity
QVQLVESGGGLVQAGGSLRLSCAASGITFYRNAMGWYRQAPGKEMELVAAITWNGGRTYYADSVKGRFTISRDNAKNTVYLQMNSLKPEDTAVYYCAADSGTRNLASYRYYYWGQATQVTVSS	low polyreactivity
QVQLVESGGGLVQAGGSLRLSCAASGITFYRNAMGWYRQAPGKERELVAAIDVGDGTYYADSVKGRFTISRDNAKNSVYFQMNSLKPEDTAVYYCNKTFLFLEYDSWGQGTQVTVSS	low polyreactivity
QVQLVESGGGLVQAGGSLRLSCAASGITFYRNAMGWYRQAPGKERELVAAIDVGDGTYYADSVKGRFTISRDNAKNTDYLQMNSLKPEDTAVYYCNKTFLFLEYDSWGQGTQVTVSS	low polyreactivity
QVQLVESGGGLVQAGGSLRLSCAASGITFYRNAMGWYRQAPGKERELVAAISRRGGITRYADSVKGRFTISRDNAKNTVYLQMNSLKPEDTAVYYCAKAIGSTALRRATEDYWGQGTQVTVSS	high polyreactivity
QVQLVESGGGLVQAGGSLRLSCAASGITFYRYAMGWYRQAPGKEREFVAAITWGSTYYADSVKGRFTISRDNAKNTVYLQMTSLKPEDTAVYYCNKKGYTVGATVGYWGQGTQVTVSS	low polyreactivity
QVQLVESGGGLVQAGGSLRLSCAASGITFYRYAMGWYRQAPGKERELVAAIRGGGASTYYADSVKGRFTISRDNAKNTVYLQMNSLKPEDTAVYYCAARAARSITNGYWGQGTQVTVSS	high polyreactivity
QVQLVESGGGLVQAGGSLRLSCAASGITFYRYAMGWYRQAPGKERELVAAISRSGGSTYYADSVKGRFTISRDNAKNTVYLQMNSLKPEDTAVDYCAAYILGNRDGYDYWGQGTQVTVSS	high polyreactivity
QVQLVESGGGLVQAGGSLRLSCAASGITFYRYAMGWYRQAPGKERELVAAISWSGGRTYYADSVKGRFTISRDNAKNTVYLQMNSLKPEDTAVYYCNAYLYPYTRLDYWGQGTQVTVSS	high polyreactivity
QVQLVESGGGLVQAGGSLRLSCAASGITFYRYAMGWYRQAPGKERELVATITSGGSTYYADSVKGRFTISRDNAKNTVYLQMNSLKPEDTAVYYCAAESVWTWYYTTAGMDYWGQGTQVTVSS	high polyreactivity
QVQLVESGGGLVQAGGSLRLSCAASGITFYRYDMGWYRQAPGKERELVAAISTRGGSTYYADSVKGRFTISRDNAKNTVYLQMNSLKPEDTAVYYCAKERVGTSLPFKDYYWGQGTQVTVSS	low polyreactivity
QVQLVESGGGLVQAGGSLRLSCAASGITFYSNAMGWYRPAPGKERELVAAISYRGGSTYYADSVKGRFTISRDNAKNTVYLQMNSLKPEDTAVYYCNKEVDWGWGRISYDSWGQGTQVTVSS	low polyreactivity
QVQLVESGGGLVQAGGSLRLSCAASGITFYSYAMGWYRQAPGKERELVAGISGGGGTSYADSVKGRFTISRDNAKNTVYLQMNSLKPEDTAVYYCNVYAYTYYYWAFYTEDYWGQGTQVTVSS	high polyreactivity
QVQLVESGGGLVQAGGSLRLSCAASGITFYTYAMGWYRQAPGKERELVAAITNGGNTSYADSVKGRFTISRDNAKNTVYLQMNSLKPEDTAVYYCAAVVTLPIWGNWYYVRYGYWGQGTQVTVSS	low polyreactivity
QVQLVESGGGLVQAGGSLRLSCAASGITFYTYAMGWYRQAPRKERELVAAISGSGGSTYYADSVKGRFTISRDNAKNTVYLQMNSLKPEDTAVYYCAARWPRGPFGNRHDYWGQGTQVTVSS	high polyreactivity
QVQLVESGGGLVQAGGSLRLSCAASGITFYVHAMGWYRQAPGKERELVASITWSGGSTYYADSVKGRFTISRDNAKNTVYLQMNSLKPEDTAVYYCAHVLYRAYEYWGQGTQVTVSS	low polyreactivity
QVQLVESGGGLVQAGGSLRLSCAASGITFYVYAMGWYRKAPGKERELVAAITSNGASTYYADSVKGRFTISRDNAKNTVYLQMNSLKPEDTAVYYCARRIKFPYHSYVGEYDYWGQGTQVTVSS	low polyreactivity

Sequence	polyreactivity (PSR sort gate)
QVQLVESGGGLVQAGGSLRLSCAASGITFYVYAMGWYRQAPGKEREFVAAISTRDGTTYADSLKGRFTISRDNAKNTVYLQMNSLKPEDTAVYYCAAAYYYDGQQGDFDYWGQGTQVTVSS	low polyreactivity
QVQLVESGGGLVQAGGSLRLSCAASGITFYVYAMGWYRQAPGKERELVAAINYDSGSTYYADSVKGRFTISRDNAKNTVYLQMNSLKPEDTAVYYCATDGVNPFYAYDFWGQGTQVTVSS	low polyreactivity
QVQLVESGGGLVQAGGSLRLSCAASGITFYVYAMGWYRQAPGKERELVAANSSGGGSTYYADSVKGRFTISRDNAKNTVYLQMNSLKPEDTAVYYCNKLFPGTYDGAHGYWGQGTQVTVSS	low polyreactivity
QVQLVESGGGLVQAGGSLRLSCAASGITFYYYAMGWYRQAPGKERELVAAIDTDGSTYYADSVKGRFTISRDNAKNTVYLQMNSLKPEDTAVYYCAAEIEYYPYSGYIYDYWGQGTQVTVSS	high polyreactivity
QVQLVESGGGLVQAGGSLRLSCAASGITFYYYAMGWYRQAPGKERELVAAISRSGITYYADSVKGRFTISRDNAKNTVYLQMNSLKPEDTAVYYCAAGRRFDQSMYYWGQGTQVTVSS	high polyreactivity
QVQLVESGGGLVQAGGSLRLSCAASGITFYYYAMGWYRQAPGKERELVAAISVSGGSTYYADSVKGRFTISRDNAKNTVYLQMNSLKPEDTAVYYCAAADLLSYTYPEYDYWGQGTQVTVSS	low polyreactivity
QVQLVESGGGLVQAGGSLRLSCAASGITFYYYAMGWYRQAPGKERELVAAISWSGGRTYYADSVKGRFTISRDNAKNTVYLQMNSLKPEDTAVYYCAAGYYLYHFVSLYGGDYWGQGTQVTVSS	high polyreactivity
QVQLVESGGGLVQAGGSLRLSCAASGITFYYYAMGWYRQAPGKERELVADISSSGGSTYYADSVKGRFTISRDNAKNTVYLQMNSLKPEDTAVYYCNAVYRWYRPRVRFFRYDYWGQGTQVTVSS	high polyreactivity
QVQLVESGGGLVQAGGSLRLSCAASGITIGRYAMGWYRQAPGKERELVAAISWSGGSTYYADSVKGRFTISRDNAKNTVYLQMNSLKPEDTAVYYCNKLRRYSEYNADDGDYWGQGTQVTVSS	high polyreactivity
QVQLVESGGGLVQAGGSLRLSCAASGITIKAYAMGWYRQAPGKERELVAAISGSGGSTYYADSVEGRFTISRDNAKNTVYLQMNSLKPEDTAVYYCAARAVSLTGYRFGYWGQGTQVTVSS	high polyreactivity
QVQLVESGGGLVQAGGSLRLSCAASGITILNYVMGWYRQAPGKERELVAGINFSGDGTYYADSVKGRFTISRDNAKNTVFLLMNSLKPEDTAVYYCAADWLSVSRIYYSWGQGTQVTVSS	low polyreactivity
QVQLVESGGGLVQAGGSLRLSCAASGITILWNVMGWYRQAPGKERELVATITSIGGITNYADSVKGRFTISRDNAKNTVYLQMNSLKPEDTAVYYCARDDRDIRGVSGREGFLYDYWGQGTQVTVSS	low polyreactivity
QVQLVESGGGLVQAGGSLRLSCAASGITIRFYAMGWYRQAPGKERELVAAITRGGSTTYADSVKGRFTISRDNAKNTVYLQMNSLKPEDTAVYYCNAQYQSGYYTSYPDRFDYWGQGTQVTVSS	low polyreactivity
QVQLVESGGGLVQAGGSLRLSCAASGITIRGYAMGWYRQAPGKERELVAAINTRTSTYYADSVKGRFTISRDNAKNTVYLQMNSLKPEDTAVYYCNRDPVYYDFDYWGQGTQVTVSS	low polyreactivity
QVQLVESGGGLVQAGGSLRLSCAASGITIRRYAMGWYRQAPGKERELVAAITTGGGGTYYADSVKGRFTISRDNAKNTVYLQMNSLKPEDTAVYYCAATYWRTYPSYYWGQGTQVTVSS	high polyreactivity
QVQLVESGGGLVQAGGSLRLSCAASGITIVNYVMGWYRQAPGKERELVAAISIGGGTYYADSVKGRFTISRDNAKNTVYLQMNSLKPEDTAVYYCNARSEVSYWWGGYWGQGTQVTVSS	low polyreactivity
QVQLVESGGGLVQAGGSLRLSCAASGITIVWYAMGWYRLAPGKEREFVASISWRGGTTYYADSVKGRFTISRDNAKNTVDLQMNSLKPEDTAVYYCAARTRWWYRYDYWGQGTQVTVSS	high polyreactivity
QVQLVESGGGLVQAGGSLRLSCAASGITIYHNAMGWYRPAPGKERELVAAISWSGGSTYYADSVKGRFTISRDNANNTVYLQMNSLKPEDSAVYYCAAYQRVREGHDYEYWGQGTQVSVSS	high polyreactivity
QVQLVESGGGLVQAGGSLRLSCAASGITIYKNAMGWYRQAPGKERELFAAITRGGSTYYADSVKGRFTISRDNAKNTVYLQMNCLKPEDTAVYYCNKVYHWQTPGFGYGYWGQGTQVTVST	high polyreactivity
QVQLVESGGGLVQAGGSLRLSCAASGITIYVYAMGWYRQAPGTERELVAAITRSGGITSYADSVKGRFTISRDNAKNTVYLQMNSLKPEDTAVYYVAAESTNLHYHIQGVGYWGQGTQVTVSS	low polyreactivity
QVQLVESGGGLVQAGGSLRLSCAASGITLDRNYMGWYRQAPGKERELVAAISRSGVRTYYADSVKGRFTISRDNAKNTVYLQMNSLKPEDTAVYYCNKGYARRYASGYDYWGQGTQVTVSS	high polyreactivity
